In patent US12062453B2, “Self-titrating bacterial protease-activated prodrug” (GEORGIA TECH RESEARCH CORPORATION, priority 2018, dated 2024):
Like-named read-outs stand apart in the source and are kept apart here.

Assays:
[1] = target: T1, OmpT (Escherichia coli, UniProt P09169); type: cell-based, E. coli; parameters: OmpT expressed on the surface of E. coli; endogenous in cells; host or cells: DH5a Escherichia coli
Description: To model the rate of enzymatic activation of locked drugs, L, by OmpT, Michaelis-Menten (MM) kinetics were applied, where the rate of substrate activation is determined by the catalytic rate of the reaction, kcat, and the half-maximal substrate concentration, Km (Equation 1.3). Here it was assumed the system constituted a well-mixed solution of freely diffusing substrates (i.e., locked drug) in large excess, which were valid assumptions for this study since AMP prodrug was present at concentrations ˜102 micromolar in an aqueous environment. Because the total amount of drug is conserved, the MM activation rate of unlocked drug, U, was defined as opposite of the degradation rate of locked drug L (Equation 1.4). A term to account for the loss of active AMPS was included according to a proportionality constant, a*, that represents the number AMP required to kill one E. coli. This term was necessary as AMPS lyse E. coli by intercalating with bacterial membranes (Roversi, et al. ACS Chemical Biology, 9:2-3-2007 (2014)) and therefore are removed from the system and unable to target additional bacteria.
To fit this model to the disclosed system, the values for relevant parameters, including enzymatic efficiency (e.g., kcat, Km), bacterial growth (e.g., r, Bmax), and prodrug activity (e.g., a, a*) were measured (FIGS. 2A-2D, Table 2). This allowed for the prediction of bacteria-prodrug response curves (FIGS. 3B-3J) across nine distinct combinations of kcat and r values, which were experimentally controlled by altering the ambient temperature and concentration of broth (conditions labeled A1-3, B1-3, and C1-3). […] To experimentally validate the model predictions, bacteria were incubated with prodrugs under the defined nine conditions, and the number of living bacteria were quantified longitudinally over the course of a 24 hour treatment window. […]

[2] = test system: DH5a Escherichia coli; type: cell-based
Description: Bacterial culture and cytotoxicity measurement: DH5a Escherichia coli were a gift from Todd Sulchek's BioMEMS lab at Georgia Tech. E. coli were cultured in LB broth (Lennox) at 37 C and plated on LB agar (Lennox) plates. LB broth was purchased from Millipore Sigma (Burlington, Mass.) and LB agar was purchased from Invitrogen (Carlsbad, Calif.). AMP and locked AMP were custom ordered from Genscript (Piscataway, NJ). […] Concentration was estimated by measuring the OD600 of the bacterial suspension, and assuming an OD600 of 1.000 corresponds to a concentration of 8×10^8 CFU/mL. Bacterial cell viability was measured by making eight 10-fold serial dilutions, and plating three 10 uL spots on an LB agar plate. Plates were incubated overnight at 37° C., and CFUs were counted.

[3] = target: T2, OmpT expressed on the surface of E. coli (Escherichia coli, UniProt P09169); type: cell-based
T2 construct: OmpT expressed on the surface of E. coli; endogenous in cells; host or cells: DH5a Escherichia coli

[4] = target: T1, OmpT; type: biochemical, E. coli; parameters: purchased Lifespan Biosciences (Seattle, WA)
Description: Protease Cleavage Assays: All protease cleavage assays were performed with a BioTek Cytation 5 Imaging Plate Reader, taking fluorescent measurements at 485/528 nm (excitation/emission) for read-outs measuring peptide substrates terminated with FITC (Fluorescein isothiocyanate). Kinetic measurements were taken every minute over the course of 60-120 minutes at 37 C. Tobacco Etch Virus protease (TEVp), along with its substrate and buffer was obtained from Anaspec, Inc. (Fremont, Calif.). Activity RFU measurements were normalized to time 0 measurement, and as such represent fold change in signal. Outer Membrane Protease T (i.e., OmpT, Protease 7) was purchased from Lifespan Biosciences (Seattle, WA). OmpT fluorescent peptide substrate was custom ordered from Genscript (Piscataway, NJ).

T1 sequence (P09169 21-317): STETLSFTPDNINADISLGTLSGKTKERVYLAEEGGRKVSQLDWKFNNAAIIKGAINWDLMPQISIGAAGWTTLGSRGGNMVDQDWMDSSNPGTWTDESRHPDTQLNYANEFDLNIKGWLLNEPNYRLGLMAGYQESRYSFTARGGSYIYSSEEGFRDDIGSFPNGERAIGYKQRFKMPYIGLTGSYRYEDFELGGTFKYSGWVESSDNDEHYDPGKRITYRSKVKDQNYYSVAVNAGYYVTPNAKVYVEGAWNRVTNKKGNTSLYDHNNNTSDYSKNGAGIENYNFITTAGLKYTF
T2 sequence (P09169 21-317): as above

## AMP: cationic (polyarginine) antimicrobial peptide, the unlocked drug (KLAKLAKKLAKLAK; Bacterial protease substrate)
[1]
  a*, AMP decay (number of AMP required to kill one E. coli): 2.4e11 AMP/bacteria
  a, cytotoxic efficiency, EC50: 1e11 h^−1, AMP/bacteria/hr
[2]
  Cytotoxicity of unlocked drug (colonies): significant reduction in colonies

## Aprotinin
[2]; locked AMP plus Aprotinin inhibitor
  Bacteria load after prodrug treatment: did not significantly reduce bacteria load
[3]; live E. coli culture plus inhibitor
  OmpT activity in samples containing inhibitor: no activity was observed
[4]; recombinant OmpT plus inhibitor
  OmpT activity in samples containing inhibitor: no activity was observed

## EEEEEEEEEEEEERRSRRVRRRRRRRRR [Locked AMP (linker 1)]
[1]
  Km, Michaelis constant: 9e+12 µL⁻¹
[1]; condition A1: 37 °C, LB broth 0%
  kcat: 25 h^−1 × 10^10
[1]; condition A2: 30 °C, LB broth 2%
  kcat: 13.6 h^−1 × 10^10
[1]; condition A3: 37 °C, LB broth 2%
  kcat: 22 h^−1 × 10^10
[1]; condition B1: 37 °C, LB broth 4%
  kcat: 15 h^−1 × 10^10
[1]; condition B2: 37 °C, LB broth 6%
  kcat: 13.6 h^−1 × 10^10
[1]; condition B3: 37 °C, LB broth 20%
  kcat: 1 h^−1 × 10^10
[1]; condition C1: 30 °C, LB broth 20%
  kcat: 5.2 h^−1 × 10^10
[1]; condition C2: 30 °C, LB broth 66%
  kcat: 4 h^−1 × 10^10
[1]; condition C3: 37 °C, LB broth 66%
  kcat: 6 h^−1 × 10^10
[1]; range over conditions
  kcat, enzyme catalytic turnover: 0.7-25e10 h^−1
[2]; prodrug alone
  Bacteria load after prodrug treatment: Elimination of bacteria

## EEEEEEEEENLYFQGRRRRRRRRR [Locked AMP (linker 3)]
[2]; prodrug alone
  Bacteria load after prodrug treatment: did not significantly reduce bacteria load
[2]; prodrug plus TEV protease
  Bacteria load after prodrug treatment: Elimination of bacteria

## DABCYL-RRSRRV-Lys(5-FAM) [OmpT Probe]
[3]; live E. coli culture
  OmpT cleavage activity against fluorophore-quencher linker probe: OmpT activity was detected
[4]; recombinant OmpT
  OmpT cleavage activity against fluorophore-quencher linker probe: OmpT activity was detected
